Test results published in PMC4352895, “Jarid2 Methylation via the PRC2 Complex Regulates H3K27me3 Deposition during Cell Differentiation” (Molecular Cell, 2015).

Key:
[1] = tested on: PRC2; experiment: PRC2 HKMT activity with Jarid2 fragments (aa 109–450), recombinant or native chromatin; type: biochemical; details: native chromatin; equimolar amounts of Jarid2 fragments aa 109–450; n = 3
From the text: Figure 5 Jarid2 Methylation Regulates PRC2 Enzymatic Activity Depending on Chromatin Environment (A) HKMT assay performed with PRC2-Ezh2 on recombinant oligonucleosomes in the presence of peptides mimicking either Jarid2-K116me2 and me3 or H3K27me3. (B) HKMT assay as in (A) performed with PRC2-Ezh2 reconstituted with either Eed WT or F97A. (C) Table indicating the sequences of the peptides and the relative dissociation constant Kd (μM) for ΔEed binding measured by ITC. (D) Ribbons representation of ΔEed-Jarid2-K116me3 and ΔEed-H3K27me3 complexes. Eed is in gray; Jarid2 peptide is in yellow while H3 peptide is in purple, both in stick representation. Eed aromatic amino acids are in stick and cyan color. Top: top views. Bottom: zoom-in of side views. (E) HKMT assay as in (A) in presence of peptides Jarid2-K116me3 WT or F117A. (F) Left: representation of the chimeric proteins used in the HKMT assay. The red cross indicates the point mutations introduced in the protein to perform native chemical ligation. […] Right: quantification of PRC2-HKMT activity in the presence of the three Jarid2 fragments (mean ± SD, n = 3). […]
The N-terminal region of Jarid2 comprises distinct domains for both PRC2 and chromatin interactions ([Son et al., 2013]). […] We then monitored PRC2 enzymatic activity on recombinant or native nucleosomes either alone or in the presence of equimolar amounts of Jarid2 fragments (Figure 5F). […]

[2] = tested on: PRC2-Ezh2; experiment: HKMT assay, PRC2-Ezh2 with Jarid2 fragments, titration of H3K27me3 octamers in recombinant chromatin; type: biochemical; details: recombinant chromatin with increasing amount of H3K27me3 octamers
From the text: Figure 5 Jarid2 Methylation Regulates PRC2 Enzymatic Activity Depending on Chromatin Environment (A) HKMT assay performed with PRC2-Ezh2 on recombinant oligonucleosomes in the presence of peptides mimicking either Jarid2-K116me2 and me3 or H3K27me3. (B) HKMT assay as in (A) performed with PRC2-Ezh2 reconstituted with either Eed WT or F97A. (C) Table indicating the sequences of the peptides and the relative dissociation constant Kd (μM) for ΔEed binding measured by ITC. (D) Ribbons representation of ΔEed-Jarid2-K116me3 and ΔEed-H3K27me3 complexes. Eed is in gray; Jarid2 peptide is in yellow while H3 peptide is in purple, both in stick representation. Eed aromatic amino acids are in stick and cyan color. Top: top views. Bottom: zoom-in of side views. (E) HKMT assay as in (A) in presence of peptides Jarid2-K116me3 WT or F117A. (F) Left: representation of the chimeric proteins used in the HKMT assay. The red cross indicates the point mutations introduced in the protein to perform native chemical ligation. Red circle indicates K116me3. Right: quantification of PRC2-HKMT activity in the presence of the three Jarid2 fragments (mean ± SD, n = 3). […]
To evaluate a potential competition between H3K27me3 and Jarid2-K116me3, we reconstituted chromatin in presence of increasing ratios of octamers fully methylated on K27 and monitored PRC2 activity in presence of Jarid2 fragments (Figure 5G). […]

B1: fully methylated Jarid2 fragment: peptide containing aa 109–123 (K116me3) coupled through native chemical ligation with the aa 124–450 fragment (protein, UniProt Q92833 109-450, looked up, fragment)
chain: PRLQAQRKFAQSQPNSPSTTPVKIVEPLLPPPATQISDLSKRKPKTEDFLTFLCLRGSPALPNSMVYFGSSQDEEEVEEEDDETEDVKTATNNASSSCQSTPRKGKTHKHVHNGHVFNGSSRSTREKEPVQKHKSKEATPAKEKHSDHRADSRREQASANHPAAAPSTGSSAKGLAATHHHPPLHRSAQDLRKQVSKVNGVTRMSSLGAGVTSAKKMREVRPSPSKTVKYTATVTKGAVTYTKAKRELVKDTKPNHHKPSSAVNHTISGKTESSNAKTRKQVLSLGGASKSTGPAVNGLKVSGRLNPKSCTKEVGGRQLREGLQLREGLRNSKRRLEEAHQA
modifications: K116 trimethyl
notes: peptide containing aa 109–123 (K116me3) coupled through native chemical ligation with the aa 124–450 fragment
[1]
  stimulation of PRC2 enzymatic activity relative to K116A or K116R fragments, result in words: this stimulation was lost
[2]
  effect of H3K27me3 titration on Jarid2-mediated stimulation of PRC2, result in words: no effect on the stimulation of PRC2 mediated by Jarid2
